Test results as given in patent US20230340142A1 (SUZHOU NEOLOGICS BIOSCIENCE, published 2023).

Columns and labels:
[1] = target: T1, human PD-L1 (human, UniProt Q9NZQ7 19-238, limits assumed); assay: flow cytometry on MDA-MB-231 cells (PD-L1 on the cell surface), PE-labelled secondary antibody, MFI
T1 construct: also called hPD-L1
Protocol: (§1) Glycosylation differences in cancer cell lines of different tissue origin may affect the binding affinity between PD-L1 antibody and PD-L1. In this study, five cell lines were selected, namely BT20(Breast), mb-231 (Breast), A375(Melanoma), HCC827(Lung), and RKO(Colon). Cells were re-suspended with FACS buffer (1%BSA in PBS), and 50 µl cell suspension per well was added to the 96-well U-bottom plate (Corning, catalog#3795). The purified antibody to be tested was diluted in gradient, then 50 µl was added to each well and incubated at 4° C. for 1 hour. After washing by FACS buffer for three times, the cells were incubated with PE-labeled fluorescent secondary antibody and incubated at 4° C. for half an hour. Cells were washed three times with FACS buffer and resuspended to 200 uL/ well. The fluorescence signal was detected using Canto II flow cytometry (BD).

[2] = target: T2, human PD-L1 recombinant protein, PD-L1-his (human, UniProt Q9NZQ7 19-238); assay: Gator BLI; antibody on HFC sensor, PD-L1-his in solution; 1:1 fit
T2 construct: also called PD-L1 with a his-tag; not shown: his-tag
Protocol: PD-L1 antibodies were coupled to the surface of the HFC sensor (Probe Life), and human PD-L1 recombinant protein as the mobile phase was 2 times gradient diluted. The association and dissociation between PD-L1 protein and the antibodies on the surface of the sensor were measured. Specifically, the HFC sensor was prewetted in SD buffer (PBS containing 0.02% Tween-20 and 0.2% BSA) for 5-10 minutes, and then incubated in SD buffer containing antibodies for 1-3 minutes, allowing antibodies to be coupled to the sensor surface. The antibody-coupled HFC sensor was incubated in the SD buffer solution for 1 minute, and then incubated in the buffer solution containing different concentrations of PD-L1-his for 1-5 minutes to measure the association of PD-L1 protein to captured antibody. Finally, the sensor combining the antigen and antibody was incubated in SD buffer for 2-10 minutes to measure PD-L1 protein’s dissociation from sensor. The measured data were fitted using a 1:1 model, and the association rate (Kon) and the dissociation rate (Koff) were calculated. The equilibrium dissociation constant (kD) was calculated by the ratio Koff/Kon.

[3] = target: T1, human PD-L1; assay: flow cytometry on HCC827 cells (PD-L1 on the cell surface), PE-labelled secondary antibody, MFI
Protocol: as §1

[4] = target: T1, human PD-L1; assay: flow cytometry on BT20 cells (PD-L1 on the cell surface), PE-labelled secondary antibody, MFI
Protocol: as §1

[5] = target: T1, human PD-L1; assay: flow cytometry on RKO cells (PD-L1 on the cell surface), PE-labelled secondary antibody, MFI
Protocol: as §1

T2 sequence (Q9NZQ7 19-238 limits assumed): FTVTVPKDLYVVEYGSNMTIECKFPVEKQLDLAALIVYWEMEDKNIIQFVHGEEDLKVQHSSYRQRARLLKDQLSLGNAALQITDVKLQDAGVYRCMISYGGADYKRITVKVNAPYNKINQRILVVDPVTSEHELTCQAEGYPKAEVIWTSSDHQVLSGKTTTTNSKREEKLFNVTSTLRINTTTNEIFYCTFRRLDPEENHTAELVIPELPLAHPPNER
T1 sequence (Q9NZQ7 19-238 limits assumed): as above

| EC50 (read off the curve) [1] | Kd [2] | koff [2] | kon [2] | EC50 (read off the curve) [3] | EC50 (read off the curve) [4] | EC50 (read off the curve) [5] | Binder |
| --- | --- | --- | --- | --- | --- | --- | --- |
| ~0.03 µg/mL | 3.68 nM | 0.000826 s⁻¹ | 225000 M⁻¹ s⁻¹ | ~0.02 µg/mL | ~0.01 µg/mL | ~0.02 µg/mL | Clone D (antibody, V domains shown, Mouse hybridoma clone) VH: EVQLQQSGPELVKPGASMKISCKASGYSFTGYTMNWVKQSHGKNLEWIGLIIPYNGGISYNQKFKDKATLTVDKSSSTAYMELLSLTSEDSAVYYCASLITTAPRDSMDYWGQGTSVTVSS VL: DIQMTQTTSSLSASLGDRVTISCRASQDISNYLNWYQQKPDGSVKLLIYYTSKLHSGVPSRFSGSGSGTDYSLTISNLEQEDIATYFCQQGDALPWTFGGGTKLEIK |
| ~0.03 µg/mL | 3.52 nM | 0.000582 s⁻¹ | 165000 M⁻¹ s⁻¹ | ~0.02 µg/mL | ~0.007 µg/mL | ~0.03 µg/mL | Clone N (antibody, V domains shown, Mouse hybridoma clone) VH: EVQLQQSGPELVKPGASMKISCKASGYSFTGYTMNWVKQSHGKNLEWIGLIIPHNGGTSYNQKFKDKATLTVDKSSRTAYMELLSLTSEDSAVYYCASLMTTAPRDSMDYWGQGTSVTVSS VL: DIQMTQTTSSLSASLGDRVTISCRASQDISNYLNWYQQKPDGTVKLLIYYTSRLHSGVPSRFSGSGSGTDYSLTISNLDQEDIATYFCQQGATLPWTFGGGTKLEIK |
| ~0.03 µg/mL | 4.32 nM | 0.00101 s⁻¹ | 234000 M⁻¹ s⁻¹ | ~0.03 µg/mL | ~0.02 µg/mL | ~0.02 µg/mL | Clone C (antibody, V domains shown, Mouse hybridoma clone) VH: EVQLQQSGADLVKPGASVKLSCTASGFNIKDTYMHWVKQRPEQGLEWIGRIDPANGNTKYDPKFQGKATITTDTSSNTAYLQLSSLTSEDTAVYYCARGLGRWFAYWGQGTLVTVSA VL: DIVMTQSHKFMSTSVGDRVSITCKASQDVSNAVAWYQQKPGQSPELLIYSASNRYTGVPDRFTGSGSGTDFTFTISSVQAEDLAVYYCQQHDSTPLTFGAGTKLELK |
| ~0.06 µg/mL | 5.94 nM | 0.0006 s⁻¹ | 101000 M⁻¹ s⁻¹ | ~0.05 µg/mL |  | ~0.04 µg/mL | Clone B (antibody, V domains shown, Mouse hybridoma clone) VH: QGQMQQSGAELVKPGASVKLSCKTSGFTFSSSYISWLKQKPGQSLEWIAWIYAGTGGTSYNQKFTGKAQLTVDTPSSTAYMQFSSLTTEDSAIYYCARHEGKYWYFDVWGAGTTVTVSS VL: QILLTQSPAIMSASPGEKVTMTCSASSSVSYVHWYQQKPGSSPKPWIYDTSNLASGFPARFSGSGSGTSYSLIISSMEAEDAATYYCHQRSSYPWTFGGGTKLEIK |
